Experiments:
[1] = target: ALK LF655del cleavage site mutant
[2] = target: Full-length human anaplastic lymphoma kinase (ALK) receptor, wild type
Sequence of Full-length human anaplastic lymphoma kinase (ALK) receptor, wild type (chain, as listed by the source): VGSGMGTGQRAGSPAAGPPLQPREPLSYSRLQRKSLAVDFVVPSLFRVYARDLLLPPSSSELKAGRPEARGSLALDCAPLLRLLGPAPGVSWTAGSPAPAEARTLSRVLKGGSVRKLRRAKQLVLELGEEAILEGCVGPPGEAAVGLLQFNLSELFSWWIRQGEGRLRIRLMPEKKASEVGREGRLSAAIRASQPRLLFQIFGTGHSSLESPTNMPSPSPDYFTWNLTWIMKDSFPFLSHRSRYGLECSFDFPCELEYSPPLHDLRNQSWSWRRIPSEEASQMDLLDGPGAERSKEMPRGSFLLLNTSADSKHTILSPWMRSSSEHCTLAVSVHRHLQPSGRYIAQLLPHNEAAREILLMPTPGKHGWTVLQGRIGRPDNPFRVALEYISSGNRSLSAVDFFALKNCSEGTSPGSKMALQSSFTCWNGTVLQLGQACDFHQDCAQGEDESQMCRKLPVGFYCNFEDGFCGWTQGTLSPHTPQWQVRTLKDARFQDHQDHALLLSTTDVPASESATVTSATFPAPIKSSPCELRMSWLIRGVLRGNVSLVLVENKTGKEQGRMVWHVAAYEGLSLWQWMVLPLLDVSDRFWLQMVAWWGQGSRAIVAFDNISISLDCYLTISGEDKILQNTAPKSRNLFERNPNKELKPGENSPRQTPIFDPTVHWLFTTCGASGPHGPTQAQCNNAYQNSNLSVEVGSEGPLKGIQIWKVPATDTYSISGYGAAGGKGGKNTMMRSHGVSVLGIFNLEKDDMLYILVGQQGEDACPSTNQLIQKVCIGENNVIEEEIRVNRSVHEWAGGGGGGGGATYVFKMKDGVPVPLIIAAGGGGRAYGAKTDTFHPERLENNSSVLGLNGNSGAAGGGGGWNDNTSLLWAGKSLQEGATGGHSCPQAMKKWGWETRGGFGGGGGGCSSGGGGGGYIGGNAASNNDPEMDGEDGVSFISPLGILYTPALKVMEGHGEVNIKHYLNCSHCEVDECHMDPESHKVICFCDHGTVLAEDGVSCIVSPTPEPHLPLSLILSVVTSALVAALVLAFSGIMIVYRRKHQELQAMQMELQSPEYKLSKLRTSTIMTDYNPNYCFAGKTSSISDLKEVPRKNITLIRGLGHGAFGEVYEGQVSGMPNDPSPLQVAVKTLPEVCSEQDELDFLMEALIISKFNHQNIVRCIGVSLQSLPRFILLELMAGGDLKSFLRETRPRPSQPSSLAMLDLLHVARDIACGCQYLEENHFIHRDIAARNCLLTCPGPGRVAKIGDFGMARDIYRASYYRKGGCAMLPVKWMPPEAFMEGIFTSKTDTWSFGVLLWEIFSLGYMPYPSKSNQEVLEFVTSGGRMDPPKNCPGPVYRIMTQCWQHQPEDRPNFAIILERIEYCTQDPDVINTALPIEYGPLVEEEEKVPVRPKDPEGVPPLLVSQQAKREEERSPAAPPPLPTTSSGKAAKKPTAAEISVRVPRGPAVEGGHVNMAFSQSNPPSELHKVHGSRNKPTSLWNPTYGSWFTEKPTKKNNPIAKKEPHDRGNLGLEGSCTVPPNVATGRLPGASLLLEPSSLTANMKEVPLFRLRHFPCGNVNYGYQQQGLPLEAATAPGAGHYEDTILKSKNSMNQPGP

Sequence of ALK LF655del cleavage site mutant (chain, as listed by the source mutant): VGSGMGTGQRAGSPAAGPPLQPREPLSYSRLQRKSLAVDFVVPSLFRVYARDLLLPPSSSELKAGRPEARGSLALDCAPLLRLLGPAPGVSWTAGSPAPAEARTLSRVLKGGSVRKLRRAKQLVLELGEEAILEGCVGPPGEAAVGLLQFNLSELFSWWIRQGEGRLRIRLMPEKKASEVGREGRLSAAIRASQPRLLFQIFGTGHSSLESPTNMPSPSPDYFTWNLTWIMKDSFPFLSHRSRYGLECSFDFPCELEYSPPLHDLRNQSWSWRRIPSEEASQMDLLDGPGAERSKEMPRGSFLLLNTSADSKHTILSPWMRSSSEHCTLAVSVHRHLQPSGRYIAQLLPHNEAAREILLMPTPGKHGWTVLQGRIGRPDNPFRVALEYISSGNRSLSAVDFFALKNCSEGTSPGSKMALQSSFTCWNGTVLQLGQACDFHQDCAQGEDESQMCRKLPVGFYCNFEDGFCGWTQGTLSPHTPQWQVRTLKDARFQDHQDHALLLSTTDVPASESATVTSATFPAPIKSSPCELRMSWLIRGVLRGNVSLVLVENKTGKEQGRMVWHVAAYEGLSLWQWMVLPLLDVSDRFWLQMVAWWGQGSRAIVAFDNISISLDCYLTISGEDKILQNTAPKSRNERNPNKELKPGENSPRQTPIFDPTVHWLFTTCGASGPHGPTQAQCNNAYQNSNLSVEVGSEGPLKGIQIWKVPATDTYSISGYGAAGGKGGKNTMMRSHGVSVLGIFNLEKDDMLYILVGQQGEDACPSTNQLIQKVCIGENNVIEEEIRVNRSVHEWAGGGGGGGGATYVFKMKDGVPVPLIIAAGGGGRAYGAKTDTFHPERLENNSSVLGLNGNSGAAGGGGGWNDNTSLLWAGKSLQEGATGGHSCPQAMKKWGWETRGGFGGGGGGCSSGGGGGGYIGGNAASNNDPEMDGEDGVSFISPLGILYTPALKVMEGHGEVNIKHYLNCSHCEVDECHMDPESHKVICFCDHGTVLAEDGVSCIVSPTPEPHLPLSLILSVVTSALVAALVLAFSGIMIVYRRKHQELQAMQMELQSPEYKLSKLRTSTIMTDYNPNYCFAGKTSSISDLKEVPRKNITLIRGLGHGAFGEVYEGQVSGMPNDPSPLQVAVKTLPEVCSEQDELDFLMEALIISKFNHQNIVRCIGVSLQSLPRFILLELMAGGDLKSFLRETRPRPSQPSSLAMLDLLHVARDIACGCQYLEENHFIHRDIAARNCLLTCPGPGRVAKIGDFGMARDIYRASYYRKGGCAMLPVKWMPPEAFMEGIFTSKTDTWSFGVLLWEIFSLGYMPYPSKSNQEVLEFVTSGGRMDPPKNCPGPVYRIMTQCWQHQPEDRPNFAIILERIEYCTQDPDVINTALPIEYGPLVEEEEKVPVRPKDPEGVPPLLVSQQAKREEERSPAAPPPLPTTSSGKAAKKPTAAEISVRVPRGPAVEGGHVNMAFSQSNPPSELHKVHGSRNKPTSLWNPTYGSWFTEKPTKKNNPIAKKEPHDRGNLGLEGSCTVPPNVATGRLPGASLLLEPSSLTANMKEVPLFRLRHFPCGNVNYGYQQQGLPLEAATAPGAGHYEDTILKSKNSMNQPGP

B1: Full-length recombinant human MMP-9 (protein)
chain: APRQRQSTLVLFPGDLRTNLTDRQLAEEYLYRYGYTRVAEMRGESKSLGPALLLLQKQLSLPETGELDSATLKAMRTPRCGVPDLGRFQTFEGDLKWHHHNITYWIQNYSEDLPRAVIDDAFARAFALWSAVTPLTFTRVYSRDADIVIQFGVAEHGDGYPFDGKDGLLAHAFPPGPGIQGDAHFDDDELWSLGKGVVVPTRFGNADGAACHFPFIFEGRSYSACTTDGRSDGLPWCSTTANYDTDDRFGFCPSERLYTQDGNADGKPCQFPFIFQGQSYSACTTDGRSDGYRWCATTANYDRDKLFGFCPTRADSTVMGGNSAGELCVFPFTFLGKEYSTCTSEGRGDGRLWCATTSNFDSDKKWGFCPDQGYSLFLVAAHEFGHALGLDHSSVPEALMYPMYRFTEGPPLHKDDVNGIRHLYGPRPEPEPRPPTTTTPQPTAPPTVCPTGPPTVHPSERPTAGPTGPPSAGPTGPPTAGPSTATTVPLSPVDDACNVNIFDAIAEIGNQLYLFKDGKYWRFSEGRGSRPQGPFLIADKWPALPRKLDSVFEERLSKKLFFFSGRQVWVYTGASVLGPRRLDKLGLGADVAQVTGALRSGRGKMLLFSGRRLWRFDVKAQMVDPRSASEVDRMFPGVPLDTHDVFQYREKAYFCQDRFYWRVSSRSELNQVDQVGYVTYDILQCPED
[1]
  in vitro cleavage assay (western blot of ALK): but not the ALK LF655del protein
[2]
  in vitro cleavage assay (western blot of ALK): Treatment of purified WT ALK, but not the ALK LF655del protein, with recombinant human MMP-9 resulted in ALK cleavage

Reference: patent US20240262917
